Laboratory results from US11856945B2, “Methods and systems for preparing and preserving a biological sample” (Washington University, priority 2017, dated 2024).

Key:
[1] = Recovery/elution of NGAL from ZIF-8 crystals and paper substrates (ELISA); assay type: physicochemical; details: dried on paper, recovered immediately after drying; spiked NGAL amount = 100%
Excerpt: Preliminary experiments for investigating optimal buffer to dissolve NGAL embedded ZIF-8 crystals. To completely dissolve the crystals, the final pH of the system needs to be at or below 6.0 to ensure the complete release of NGAL from ZIF-8 encapsulation. For example, in the #4 composition (0.1 M phosphate buffer at pH 6.0), the crystals cannot be completely dissolved and this leads to incomplete recovery 60%, FIG. 8). Although the initial pH of the buffer is 6.0, the basic nature of ZIF-8 precursor residue in the system increases the pH of the buffer to 6.2, leading to incomplete release and recovery.
Left bar: Recovery percentage of ZIF-8 encapsulated NGAL dried on paper using the optimized elution buffer (#9 composition, 0.2 M PBS at pH=5.6 with 2 mM EDTA and 0.1% Tween 20). Middle bar: Recovery percentage of ZIF-8 encapsulated NGAL dried on paper using the #4 composition elution buffer (0.1 M PBS at pH=6 and 0.1% Tween 20). Right bar: Recovery percentage of NGAL alone dried on paper using the conventional elution buffer recipe (PBS at pH=7.4 with 0.1% Tween 20). The samples were recovered immediately after drying. 1 ml elution buffer was used to elute each paper strip. The spiked NGAL amount was set as the reference (100% recovery).
Protein recovery. […]

[2] = Preservation of NGAL spiked in artificial urine dried on paper (ELISA); assay type: physicochemical
Experimental: The efficacy was evaluated of ZIF-8 encapsulation in preserving NGAL upon exposure to harsh conditions (such as elevated temperatures) that would normally lead to protein denaturation and loss of biospecimen integrity. NGAL-spiked artificial urine dried on paper substrates, both with and without ZIF-8 encapsulation, was stored at 25, 40, or 60° C. for 1 week. Before analysis, the optimized elution buffer (0.2 M phosphate buffer at pH 5.6+Tween 20+EDTA, see Table 1 and FIGS. 8 and 9 for details) was used to elute NGAL from the paper substrates.
The slightly acidic environment (at or below pH 6) was employed to dissociate ZIF-8 crystals and release encapsulated NGAL via breaking coordination between the zinc ions and imidazolate. ZIF-8 encapsulated NGAL dried on the paper was almost fully eluted (>95%) whereas NGAL alone dried on the paper was only partially eluted (˜75%) (FIG. 9). It is important to note that ZIF-8 encapsulation prevented irreversible adsorption of proteins on the cellulose fibers by creating a crystal interface between the protein and paper substrate. […] NGAL concentration was tested by ELISA when NGAL was spiked in four different media. The same concentration of NGAL in phosphate-buffered saline (PBS) at pH 7.4 was set as the reference (100%). […] After storage and elution, the concentration of NGAL in the eluate was quantified using the NGAL sandwich ELISA. The preservation efficacy (preservation %) was calculated by comparing the NGAL amount in the eluate to the spiked NGAL amount in the artificial urine. […] NGAL added on a paper card was stored at 25, 40 or 60° C. for one week. […] The eluates were obtained by eluting paper cards dried with NGAL-spiked artificial urine with or without MOF encapsulation after storage at 40° C. for 1 week.
The preservation efficacy critically depended on the concentrations of 2-methylimidazole and zinc acetate (FIG. 14). […] The maximal preservation percentage was obtained using 160 mM of 2-methylimidazole and 40 mM of zinc acetate. […] A low preservation was noted upon using 40 mM 2-methylimidazole with 10 mM zinc acetate, which is attributed to incomplete encapsulation of NGAL under this condition (˜70% encapsulation of NGAL using 40 mM 2-methylimidazole with 10 mM zinc acetate, FIG. 7). Subsequently, using the optimal ZIF-8 precursor concentration (160 mM 2-methylimidazole and 40 mM zinc acetate), the storage time was extended under different temperatures up to 4 weeks (FIG. 11B). […] Different dried paper strips were sampled at selected time points (2, 3 or 4 weeks) to monitor possible changes in NGAL preservation. With ZIF-8 encapsulation, over 70% of NGAL on paper was preserved up to 4 weeks (the maximum time tested) at all three temperatures (25, 40 and 60° C.), as opposed to 20% preservation on samples without ZIF-8 encapsulation. […] Remarkably, 70% of NGAL on paper could be preserved within 4 weeks at 60° C., which represented an extremely harsh storage condition (a surrogate for long-term storage stability at room temperature).
Sample preparation. NGAL-spiked artificial urine (50 μg/ml of NGAL, 25 μl) or patient urine (25 μl) was first mixed with 2-methylimidazole aqueous solution (12.5 μl) and then zinc acetate dihydrate aqueous solution (12.5 μl). The final concentrations of 2-methylimidazole after mixing were 320 mM, 160 mM, 80 mM and 40 mM. The final concentrations of zinc acetate dihydrate after mixing were 80 mM, 40 mM, 20 mM and 10 mM. […]

B1: neutrophil gelatinase-associated lipocalin (protein, UniProt P80188 21-198, looked up)
Neutrophil …: QDSTSDLIPAPPLSKVPLQQNFQDNQFQGKWYVVGLAGNAILREDKDPQKMYATIYELKEDKSYNVTSVLFRKKKCDYWIRTFVPGCQPGEFTLGNIKSYPGLTSYLVRVVSTNYNQHAMVFFKKVSQNREYFKITLYGRTKELTSELKENFIRFSKSLGLPENHIVFPVPIDQCIDG
notes: urinary biomarker for acute kidney injury; human recombinant
[1]
  elution from paper substrate: ~75%
[2]; paper card, 25° C., 1 week
  NGAL preservation: less than 30%
[2]; paper card, 40° C., 1 week
  NGAL preservation: less than 30%
[2]; paper, 25° C., up to 4 weeks, 160 mM 2-methylimidazole and 40 mM zinc acetate
  NGAL preservation: 20%
[2]; paper, 40° C., up to 4 weeks, 160 mM 2-methylimidazole and 40 mM zinc acetate
  NGAL preservation: 20%
[2]; paper, 60° C., up to 4 weeks, 160 mM 2-methylimidazole and 40 mM zinc acetate
  NGAL preservation: 20%
